Measurements from the supplement of paper PMC10065799, “High-throughput profiling of sequence recognition by tyrosine kinases and SH2 domains using bacterial peptide display” (eLife, 2023).

What was measured:
AncSZ = test: phosphorylation enrichment, bacterial display (enrichment ratio); higher = better substrate or ligand; peptides without Tyr show the background
EPHB1 = EPHB1 (UniProt P54762); test: as above
EPHB2 = EPHB2 (UniProt P29323); test: as above
FGFR1 = FGFR1 (UniProt P11362); test: as above
FGFR3 = FGFR3 (UniProt P22607); test: as above
Chain of FGFR3 (P22607 whole entry, looked up): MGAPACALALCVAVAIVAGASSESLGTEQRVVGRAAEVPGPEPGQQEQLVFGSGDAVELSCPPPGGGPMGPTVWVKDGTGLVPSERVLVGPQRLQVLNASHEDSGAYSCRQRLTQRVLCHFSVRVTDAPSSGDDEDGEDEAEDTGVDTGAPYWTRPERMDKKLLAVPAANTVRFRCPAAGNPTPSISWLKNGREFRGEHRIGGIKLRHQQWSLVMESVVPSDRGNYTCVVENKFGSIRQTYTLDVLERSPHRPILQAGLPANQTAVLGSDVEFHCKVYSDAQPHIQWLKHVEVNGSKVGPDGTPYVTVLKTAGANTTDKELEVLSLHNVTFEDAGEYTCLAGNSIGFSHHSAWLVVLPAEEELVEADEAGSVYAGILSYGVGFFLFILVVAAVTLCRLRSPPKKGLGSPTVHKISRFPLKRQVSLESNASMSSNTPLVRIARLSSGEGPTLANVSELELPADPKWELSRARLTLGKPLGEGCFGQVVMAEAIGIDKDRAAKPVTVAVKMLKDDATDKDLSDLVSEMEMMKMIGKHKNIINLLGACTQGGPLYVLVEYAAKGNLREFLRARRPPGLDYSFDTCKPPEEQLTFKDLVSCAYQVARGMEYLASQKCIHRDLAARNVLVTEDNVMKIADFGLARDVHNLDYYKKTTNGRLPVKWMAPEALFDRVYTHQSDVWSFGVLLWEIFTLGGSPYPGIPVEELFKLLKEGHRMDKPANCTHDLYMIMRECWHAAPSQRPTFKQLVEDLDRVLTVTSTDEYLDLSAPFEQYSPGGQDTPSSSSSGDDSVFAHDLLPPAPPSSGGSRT

Fer (mouse) = test: as above
Fes = Fes (UniProt P07332); test: as above
Fyn = Fyn (UniProt P06241); test: as above
Chain of Fyn (P06241 whole entry, looked up): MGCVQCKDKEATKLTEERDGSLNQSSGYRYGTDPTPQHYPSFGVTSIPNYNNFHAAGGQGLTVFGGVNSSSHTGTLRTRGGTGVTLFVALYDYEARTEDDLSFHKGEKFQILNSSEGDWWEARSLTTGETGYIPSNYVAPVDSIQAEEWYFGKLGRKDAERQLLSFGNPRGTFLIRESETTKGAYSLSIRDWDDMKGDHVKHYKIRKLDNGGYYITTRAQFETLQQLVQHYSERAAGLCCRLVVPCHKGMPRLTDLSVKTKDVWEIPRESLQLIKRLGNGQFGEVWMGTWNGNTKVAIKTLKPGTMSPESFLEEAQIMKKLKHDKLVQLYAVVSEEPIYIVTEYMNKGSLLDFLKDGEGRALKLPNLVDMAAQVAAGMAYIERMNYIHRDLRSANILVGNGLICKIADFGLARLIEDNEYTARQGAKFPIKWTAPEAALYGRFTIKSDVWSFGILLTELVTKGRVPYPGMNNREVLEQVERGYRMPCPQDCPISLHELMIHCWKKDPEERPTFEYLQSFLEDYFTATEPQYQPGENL

Hck = Hck (UniProt P08631); test: as above
Chain of Hck (P08631 whole entry, looked up): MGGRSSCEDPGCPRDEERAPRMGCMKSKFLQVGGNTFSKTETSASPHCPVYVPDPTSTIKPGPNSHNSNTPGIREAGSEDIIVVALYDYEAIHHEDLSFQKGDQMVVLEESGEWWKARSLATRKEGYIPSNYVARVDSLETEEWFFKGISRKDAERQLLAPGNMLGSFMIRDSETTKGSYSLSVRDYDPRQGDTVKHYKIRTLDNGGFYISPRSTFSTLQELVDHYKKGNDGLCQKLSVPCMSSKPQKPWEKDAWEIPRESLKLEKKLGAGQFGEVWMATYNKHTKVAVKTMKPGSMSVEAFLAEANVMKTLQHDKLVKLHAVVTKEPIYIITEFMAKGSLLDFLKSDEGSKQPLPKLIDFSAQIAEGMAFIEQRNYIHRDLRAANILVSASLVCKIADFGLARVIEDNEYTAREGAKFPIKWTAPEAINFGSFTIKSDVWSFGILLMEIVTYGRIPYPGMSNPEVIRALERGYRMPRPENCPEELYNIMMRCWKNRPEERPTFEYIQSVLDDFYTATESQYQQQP

Jak2 = Jak2 (UniProt O60674); test: as above
Chain of Jak2 (O60674 whole entry, looked up): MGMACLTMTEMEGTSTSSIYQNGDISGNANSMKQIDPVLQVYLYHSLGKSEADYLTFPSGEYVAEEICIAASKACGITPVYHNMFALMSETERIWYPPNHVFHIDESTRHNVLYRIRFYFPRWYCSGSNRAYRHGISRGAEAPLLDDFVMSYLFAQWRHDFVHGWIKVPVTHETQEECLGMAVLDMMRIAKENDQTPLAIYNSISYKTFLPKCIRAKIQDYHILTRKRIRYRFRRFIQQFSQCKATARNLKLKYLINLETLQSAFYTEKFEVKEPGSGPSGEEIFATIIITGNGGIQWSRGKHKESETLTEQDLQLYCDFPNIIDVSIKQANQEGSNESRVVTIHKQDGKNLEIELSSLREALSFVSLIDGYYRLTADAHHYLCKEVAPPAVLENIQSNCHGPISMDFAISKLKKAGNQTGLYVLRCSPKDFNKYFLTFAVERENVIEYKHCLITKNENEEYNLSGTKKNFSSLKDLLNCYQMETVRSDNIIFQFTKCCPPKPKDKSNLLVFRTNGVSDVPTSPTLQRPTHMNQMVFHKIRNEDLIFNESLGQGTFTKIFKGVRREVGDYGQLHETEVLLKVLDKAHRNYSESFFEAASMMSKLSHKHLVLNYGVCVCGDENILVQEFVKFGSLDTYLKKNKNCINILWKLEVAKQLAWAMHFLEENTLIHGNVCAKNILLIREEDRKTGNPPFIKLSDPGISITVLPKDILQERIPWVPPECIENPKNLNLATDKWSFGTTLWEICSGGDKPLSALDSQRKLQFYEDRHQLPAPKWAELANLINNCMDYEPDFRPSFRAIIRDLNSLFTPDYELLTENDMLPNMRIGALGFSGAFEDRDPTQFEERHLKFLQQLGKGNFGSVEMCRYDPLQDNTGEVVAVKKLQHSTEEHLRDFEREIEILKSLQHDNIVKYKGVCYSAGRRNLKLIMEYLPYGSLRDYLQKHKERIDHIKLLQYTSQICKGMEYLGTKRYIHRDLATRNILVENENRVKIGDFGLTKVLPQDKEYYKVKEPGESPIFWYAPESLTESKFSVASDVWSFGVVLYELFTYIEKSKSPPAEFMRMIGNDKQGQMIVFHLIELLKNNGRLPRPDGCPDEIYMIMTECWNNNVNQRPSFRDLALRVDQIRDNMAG

MERTK = MERTK (UniProt Q12866); test: as above
c-Abl (mouse) = test: as above
c-Src = test: as above
Grb2 SH2 = Grb2 SH2 (UniProt P62993); test: SH2 binding enrichment of the phosphorylated peptide, bacterial display (enrichment ratio); higher = better substrate or ligand; peptides without Tyr show the background
SHP2-C SH2 = test: as above
c-Src SH2 = test: as above
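Throughout, for SH2 binding enrichment of the phosphorylated peptide, bacterial display: peptide library displayed on the E. coli surface as eCPX fusions, selected cells deep-sequenced, score is each peptide's frequency after selection divided by its frequency in the input.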
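Throughout, for phosphorylation enrichment, bacterial display: 11-residue human phosphosite peptides and single-mutation variants displayed on the E. coli surface, counted by deep sequencing, each peptide's frequency after selection divided by its frequency in the unselected input library; frequency after pTyr selection over input frequency; kinase dosed for 20-30% of maximal phosphorylation in three min.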

Chain of EPHB1 (P54762 whole entry, looked up): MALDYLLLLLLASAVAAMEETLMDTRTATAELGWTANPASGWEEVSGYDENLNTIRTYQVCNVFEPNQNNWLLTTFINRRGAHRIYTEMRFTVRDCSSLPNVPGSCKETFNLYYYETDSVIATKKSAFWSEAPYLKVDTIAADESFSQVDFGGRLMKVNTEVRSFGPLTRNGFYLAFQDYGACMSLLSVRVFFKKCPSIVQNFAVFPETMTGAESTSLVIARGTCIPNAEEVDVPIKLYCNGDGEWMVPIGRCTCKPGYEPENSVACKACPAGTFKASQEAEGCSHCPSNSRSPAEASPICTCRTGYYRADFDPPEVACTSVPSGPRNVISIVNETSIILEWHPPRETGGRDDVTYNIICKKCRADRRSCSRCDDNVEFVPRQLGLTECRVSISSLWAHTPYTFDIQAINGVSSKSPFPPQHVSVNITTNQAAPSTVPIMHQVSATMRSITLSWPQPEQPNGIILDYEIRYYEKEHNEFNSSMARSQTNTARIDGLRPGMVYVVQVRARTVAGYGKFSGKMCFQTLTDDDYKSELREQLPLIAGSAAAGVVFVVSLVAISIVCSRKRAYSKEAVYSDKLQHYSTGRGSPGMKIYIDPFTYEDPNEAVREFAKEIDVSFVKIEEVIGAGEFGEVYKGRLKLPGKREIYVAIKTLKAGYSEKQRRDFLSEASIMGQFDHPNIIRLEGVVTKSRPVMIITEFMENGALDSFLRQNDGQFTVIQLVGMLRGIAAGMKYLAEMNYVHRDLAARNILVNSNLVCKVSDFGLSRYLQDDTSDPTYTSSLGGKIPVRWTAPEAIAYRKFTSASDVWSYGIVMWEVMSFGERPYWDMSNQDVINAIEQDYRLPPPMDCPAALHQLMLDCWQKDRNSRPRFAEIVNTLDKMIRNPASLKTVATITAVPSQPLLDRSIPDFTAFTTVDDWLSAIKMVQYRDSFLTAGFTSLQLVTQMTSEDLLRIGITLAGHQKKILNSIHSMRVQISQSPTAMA
Chain of EPHB2 (P29323 whole entry, looked up): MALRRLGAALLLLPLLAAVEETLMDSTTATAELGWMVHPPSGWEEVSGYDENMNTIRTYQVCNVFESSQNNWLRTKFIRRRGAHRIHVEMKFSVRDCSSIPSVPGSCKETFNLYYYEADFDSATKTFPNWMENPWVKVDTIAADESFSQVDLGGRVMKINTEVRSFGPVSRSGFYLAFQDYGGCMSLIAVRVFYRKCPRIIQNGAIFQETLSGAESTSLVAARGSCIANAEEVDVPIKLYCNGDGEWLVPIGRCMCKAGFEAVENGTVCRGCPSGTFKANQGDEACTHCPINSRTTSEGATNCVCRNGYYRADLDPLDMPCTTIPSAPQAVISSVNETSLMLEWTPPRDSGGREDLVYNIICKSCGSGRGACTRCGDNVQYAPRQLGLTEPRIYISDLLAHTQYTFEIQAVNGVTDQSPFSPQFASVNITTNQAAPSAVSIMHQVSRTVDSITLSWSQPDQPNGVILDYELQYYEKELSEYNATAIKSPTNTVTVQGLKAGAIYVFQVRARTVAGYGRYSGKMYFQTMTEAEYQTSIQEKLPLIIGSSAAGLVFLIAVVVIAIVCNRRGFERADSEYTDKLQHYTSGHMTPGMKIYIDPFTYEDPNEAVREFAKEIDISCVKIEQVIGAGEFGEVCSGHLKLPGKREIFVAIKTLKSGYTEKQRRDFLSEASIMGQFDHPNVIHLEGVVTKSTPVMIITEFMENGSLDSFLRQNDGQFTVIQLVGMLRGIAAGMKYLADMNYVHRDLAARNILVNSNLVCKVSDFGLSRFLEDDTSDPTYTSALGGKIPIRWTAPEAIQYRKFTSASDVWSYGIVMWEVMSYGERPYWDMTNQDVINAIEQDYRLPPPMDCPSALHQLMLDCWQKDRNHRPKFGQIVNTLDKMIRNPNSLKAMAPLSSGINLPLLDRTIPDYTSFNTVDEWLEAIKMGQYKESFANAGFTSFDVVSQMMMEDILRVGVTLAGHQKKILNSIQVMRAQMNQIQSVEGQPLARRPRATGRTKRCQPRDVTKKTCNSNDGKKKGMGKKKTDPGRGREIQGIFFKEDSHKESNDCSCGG

Sequence | phosphorylation enrichment (AncSZ) | phosphorylation enrichment (EPHB1) | phosphorylation enrichment (EPHB2) | phosphorylation enrichment (FGFR1) | phosphorylation enrichment (FGFR3) | phosphorylation enrichment (Fer (mouse)) | phosphorylation enrichment (Fes) | phosphorylation enrichment (Fyn) | phosphorylation enrichment (Hck) | phosphorylation enrichment (Jak2) | phosphorylation enrichment (MERTK) | phosphorylation enrichment (c-Abl (mouse)) | phosphorylation enrichment (c-Src) | SH2 binding enrichment (Grb2 SH2) | SH2 binding enrichment (SHP2-C SH2) | SH2 binding enrichment (c-Src SH2)
KFDLMYAKLAF [TUBA1A_Y399_R402L] | 0.818 | 0.726 | 0.619 | 0.49 | 0.676 | 0.632 | 1.13 | 1.26 | 4.61 | 0.811 | 3.23 | 0.716 | 3.04 | 1.07 | 7.45 | 1.73
RRVLVYGDRGA [QDPR_Y16_G18D] | 0.585 | 0.34 | 0.322 | 0.413 | 0.549 | 0.424 | 0.539 | 0.542 | 0.525 | 0.485 | 0.48 | 0.445 | 0.573 | 0.838 | 0.529 | 0.442
GVTLLYFGRDN [ADGRD1_Y85_Y89D_YF] | 0.887 | 0.633 | 0.424 | 0.488 | 0.737 | 0.481 | 1.04 | 0.353 | 0.516 | 0.937 | 0.321 | 0.643 | 0.398 | 1.63 | 1.19 | 1.16
FYNSEYGELSE [FLT4_Y1337] | 1.47 | 0.729 | 0.956 | 0.628 | 0.932 | 0.684 | 1.36 | 1.59 | 0.997 | 1.58 | 0.589 | 0.986 | 1.69 | 0.886 | 0.805 | 0.748
KPGVNYYFQVS | 1.22 | 0.699 | 0.602 | 2.49 | 2.05 | 0.522 | 1.35 | 0.573 | 0.526 | 1.44 | 0.873 | 0.895 | 0.5 | 1.01 | 2 | 1.3
SGVVPYEPPEV [TP53_Y220_V216G] | 1.12 | 0.581 | 0.738 | 0.588 | 0.781 | 0.572 | 1.21 | 0.667 | 0.524 | 0.986 | 0.443 | 0.659 | 0.481 | 0.814 | 0.77 | 0.49
GGFTWYCDGKK [PROS1_Y266_C265W_YF] | 1.08 | 0.651 | 0.605 | 0.432 | 0.833 | 0.438 | 1.23 | 0.328 | 0.389 | 1.2 | 0.29 | 0.928 | 0.299 | 0.761 | 0.511 | 0.37
RENGPYFTSFP [GDAP2_Y487_YF] | 1.03 | 0.417 | 0.645 | 0.764 | 0.825 | 0.591 | 1.17 | 0.479 | 0.49 | 0.991 | 0.568 | 1.19 | 0.971 | 0.878 | 0.773 | 0.714
AKLVQYFMEHH [PTPN11_Y80_E76K_YF] | 0.729 | 0.462 | 0.505 | 0.496 | 0.684 | 0.445 | 0.853 | 0.374 | 0.441 | 0.63 | 0.362 | 0.546 | 0.412 | 1.31 | 1.62 | 0.97
SSSGAYGGGFG [KRT19_Y61_YF] | 0.553 | 0.383 | 0.378 | 0.412 | 0.464 | 0.396 | 0.689 | 0.434 | 0.415 | 0.595 | 0.396 | 0.539 | 0.452 | 0.724 | 0.517 | 0.427
KNRDVSSSDYF [USP24_Y2134_Y2134S] | 0.921 | 0.476 | 0.447 | 0.523 | 0.521 | 0.363 | 0.653 | 0.476 | 0.402 | 0.578 | 0.442 | 0.61 | 0.543 | 0.921 | 0.7 | 0.523
FSNPAYFVLEG [INPPL1_Y986_N982S_YF] | 1.01 | 0.642 | 0.548 | 6.43 | 4.24 | 0.564 | 0.895 | 0.416 | 0.451 | 3.86 | 3.43 | 0.865 | 0.809 | 0.928 | 0.973 | 1.85
QLQTNYPSSDN [MAX_Y115] | 0.951 | 0.583 | 0.766 | 0.642 | 0.725 | 0.551 | 1.14 | 0.476 | 0.527 | 0.773 | 0.657 | 1.02 | 0.628 | 0.752 | 0.513 | 0.546
TYGQVYKGPHV [TNIK_Y40_R43P] | 0.68 | 0.586 | 0.633 | 0.534 | 0.468 | 0.398 | 0.751 | 12.4 | 7.7 | 0.826 | 0.618 | 0.666 | 9.04 | 0.702 | 0.755 | 0.579
FTHSDYQFSQR [PKP2_Y166_YF] | 0.828 | 0.435 | 0.538 | 0.458 | 0.646 | 0.594 | 0.764 | 0.63 | 0.508 | 0.589 | 0.383 | 0.619 | 0.455 | 1 | 0.723 | 0.62
RFGKVYKGHLF [ROR2_Y488] | 0.806 | 0.377 | 0.767 | 0.661 | 0.754 | 0.585 | 0.924 | 0.717 | 0.604 | 0.803 | 1.02 | 1.69 | 0.86 | 1.13 | 0.61 | 0.331
LKEIHYPPFTD [ALDH3B2_Y362_YF] | 0.819 | 0.425 | 0.541 | 0.474 | 0.555 | 0.413 | 0.9 | 0.437 | 0.437 | 0.659 | 0.329 | 0.559 | 0.401 | 0.922 | 0.644 | 0.505

Sequence | phosphorylation enrichment (AncSZ) | phosphorylation enrichment (EPHB1) | phosphorylation enrichment (EPHB2) | phosphorylation enrichment (FGFR1) | phosphorylation enrichment (FGFR3) | phosphorylation enrichment (Fer (mouse)) | phosphorylation enrichment (Fes) | phosphorylation enrichment (Fyn) | phosphorylation enrichment (Hck) | phosphorylation enrichment (Jak2) | phosphorylation enrichment (MERTK) | phosphorylation enrichment (c-Abl (mouse)) | phosphorylation enrichment (c-Src) | SH2 binding enrichment (Grb2 SH2) | SH2 binding enrichment (SHP2-C SH2) | SH2 binding enrichment (c-Src SH2)
PNATLYKMSSI [SERPINA7_Y40] | 0.592 | 0.456 | 0.325 | 0.406 | 0.495 | 0.397 | 0.55 | 0.35 | 0.401 | 0.358 | 0.361 | 0.472 | 0.349 | 0.85 | 0.375 | 0.395
QGIFGYHHFMQ [UFSP2_Y287_YF] | 1.32 | 0.794 | 0.59 | 0.838 | 0.93 | 0.857 | 1.41 | 0.615 | 0.692 | 1.27 | 0.549 | 1.13 | 0.531 | 1.47 | 1.23 | 1.2
SVTCTYSPAVN [TP53_Y126_L130V] | 1.58 | 0.77 | 0.746 | 0.697 | 0.945 | 0.646 | 1.71 | 0.58 | 0.654 | 1.49 | 0.508 | 1.18 | 0.662 | 0.588 | 0.661 | 0.369
IITDFYVDMKF [MPP4_Y567_V562I_YF] | 1.31 | 1.41 | 1.08 | 1.37 | 1.39 | 0.953 | 1.66 | 0.527 | 0.722 | 1.75 | 0.511 | 0.905 | 0.58 | 0.799 | 0.906 | 0.452
RENGPYFASFP [GDAP2_Y487_T489A_YF] | 1.17 | 0.443 | 0.534 | 0.889 | 0.891 | 0.627 | 0.924 | 0.568 | 0.432 | 1.27 | 0.565 | 0.893 | 1.27 | 0.812 | 0.707 | 0.534
SFSGEYGSGGG [ZG16_Y30_G32S_YF] | 0.556 | 0.34 | 0.454 | 0.423 | 0.432 | 0.46 | 0.658 | 0.43 | 0.496 | 0.563 | 0.327 | 0.564 | 0.512 | 0.885 | 0.728 | 0.409
HISGVYKLPPD [ANGPTL7_Y145_R140H] | 1.79 | 0.556 | 0.6 | 0.585 | 0.67 | 0.618 | 1.33 | 3.26 | 0.718 | 1 | 0.725 | 0.697 | 2.3 | 0.957 | 0.925 | 0.459
GGDVIYKGFED [NFU1_Y194] | 0.871 | 0.425 | 0.491 | 0.499 | 0.629 | 0.395 | 0.887 | 3.25 | 0.951 | 0.924 | 0.466 | 0.663 | 2.75 | 0.822 | 0.625 | 0.427
MKALGYFAVGT [OPA1_Y498_V502G] | 0.798 | 0.469 | 0.486 | 0.479 | 0.64 | 0.395 | 0.973 | 0.432 | 0.489 | 1.92 | 0.355 | 0.7 | 0.487 | 0.831 | 0.545 | 0.543
SNKELYEKYMI | 0.896 | 0.652 | 0.62 | 0.482 | 0.579 | 7.5 | 0.802 | 0.593 | 0.871 | 0.616 | 0.597 | 0.487 | 0.96 | 0.705 | 0.506 | 0.655
VKKKLYEEIDQ [CYP17A1_Y329] | 0.924 | 0.535 | 0.541 | 0.444 | 0.601 | 0.372 | 0.98 | 0.373 | 0.493 | 0.764 | 0.347 | 0.66 | 0.361 | 0.758 | 0.412 | 8.78
TKDTFYKQPVF [GBA_Y451_M455V] | 0.634 | 0.409 | 0.523 | 0.406 | 0.473 | 0.308 | 0.766 | 0.386 | 0.312 | 0.695 | 0.417 | 0.764 | 0.421 | 0.905 | 0.66 | 0.417
CERLPYDASKW [FLT1_Y815] | 0.951 | 0.589 | 0.46 | 0.523 | 0.688 | 0.49 | 1.13 | 0.45 | 0.525 | 1.01 | 0.409 | 0.824 | 0.464 | 0.746 | 0.72 | 0.632
ETCLAYREKRI [TEKT1_Y118] | 1.07 | 0.466 | 0.519 | 0.61 | 0.558 | 0.371 | 0.956 | 0.536 | 0.49 | 0.693 | 0.508 | 0.503 | 0.423 | 0.948 | 0.742 | 0.611
TWEKPYECVQC [ZNF24_Y335_G331W] | 0.904 | 0.521 | 0.601 | 0.516 | 0.648 | 4.82 | 0.964 | 0.489 | 0.623 | 0.84 | 0.492 | 0.534 | 0.887 | 1.08 | 0.731 | 4.54
FGSVDCWEKFF [EEF1AKNMT_Y16_Y16C] | 1.14 | 0.474 | 0.624 | 0.511 | 0.569 | 0.462 | 1.24 | 0.436 | 0.426 | 1.04 | 0.459 | 0.801 | 0.461 | 0.944 | 1.03 | 0.83
